This note sets out measurements from the nanobody polyreactivity screen of Harvey et al. (2022).

The nature of the data set: yeast display, Sf9 membrane polyspecificity reagent, FACS + sequencing; frameworks hold sequencing errors. In a few lines: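 Sorting gates, low and high (top ~1%), were placed on anti-HA fluorescence to track expression and on streptavidin fluorescence to track reagent binding. A clone's polyreactivity label is taken from the gate it came out of. The reagent was 10% biotinylated, detergent-solubilized Sf9 membrane, applied for 1 hour at 4 °C to galactose-induced yeast display cells.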
For the sequence “QVQLVESGGGLVQAGGSLRLSCAASGSTFPPNAMGWSRQAPGKERELVAAISERGGSTYYADSVKGRFTISRDNAKNTVYLQMNSLKPEDTAVYYCAVDYYYLMYWGQGTQVTVSS”, the “polyreactivity (PSR sort gate)” value is recorded as “low polyreactivity”.

“QVQLVESGGGLVQAGGSLRLSCAASGSTFPPNTMGWYRQAPGKERELVAAITQRGGNTYYADSVKGRFTISRDNAKNTVYLQMNSLKPEDTAVYYCATRYRYKGYYGQYEYWGQGTQVTVSS”: the “polyreactivity (PSR sort gate)” value is “high polyreactivity”.

Consider “QVQLVESGGGLVQAGGSLRLSCAASGSTFPRNDMGWYRQAPGNERELVAAISRGGSTNYADSVKGRFTISRDNANNTVYLQMNSMKPEDTAVYYCAAQIFESAYGMDYWGQGTQVTVSS”, for which the “polyreactivity (PSR sort gate)” value was “low polyreactivity”.

Turning to “QVQLVESGGGLVQAGGSLRLSCAASGSTFPRYAMAWYRQAPGKERELVAAISSSGRTYYADSVKGRFTISRDNAKNTFYLQMNSLKPEDTAVYYCNAPVARGEASYYWGQGTQVTVSS”, the “polyreactivity (PSR sort gate)” value is “high polyreactivity”.

On to “QVQLVESGGGLVQAGGSLRLSCAASGSTFPRYAMGWYRQAPGKEREFVAAISRRGGSTYYADSVKGRFTISRDNAKNTVYLQMNSLKPEDTAVYYCAKYLPTRVWGTGRFDYWGQGTQVTVSS”, for which the “polyreactivity (PSR sort gate)” value is “high polyreactivity”.

As for “QVQLVESGGGLVQAGGSLRLSCAASGSTFPRYAMGWYRQAPGKERELVAAISGRGGSTYYADSVKGRFTISRDYAKNTVYLQMNSLKPEDTAVYYCNAYRRYYTMYYWGQGTQVTVSS”, the “polyreactivity (PSR sort gate)” value was “high polyreactivity”.

Turning to “QVQLVESGGGLVQAGGSLRLSCAASGSTFPSNAMGWYRQAPGKERELVAAISRGGGTTYYADSVKGRFTISRDNAKNTVYLQMNSLKPEDTAVYYCATRGSVGWFDGGGYWGQGTQVTVSS”, the “polyreactivity (PSR sort gate)” value is recorded as “high polyreactivity”.

Consider “QVQLVESGGGLVQAGGSLRLSCAASGSTFPSNAMGWYRQAPGKERELVAAISRSGGSTNYADSVKGRFTISRDNAKNTVYLQMNSLKPVDTAVYYCKADLGRATFYQRVFIERGGYWGQGTQVTVSS”, for which the “polyreactivity (PSR sort gate)” value is listed as “low polyreactivity”.

As to “QVQLVESGGGLVQAGGSLRLSCAASGSTFPSNAMGWYRQAPGKERELVAAISRSGGSTYYADSVKGRFTISRDNAKNTVYLQMNSLKPEDTAVYFCAVQVRPNSGGTRIHRGGYDYWGQGTQVTVSS”, the “polyreactivity (PSR sort gate)” value is listed as “low polyreactivity”.

On to “QVQLVESGGGLVQAGGSLRLSCAASGSTFPSYAMGWYRQAPGKESELVAAITNGGSTTYADSVKGRFTISRDNAKNTVYLQMNSLKPEDTAVYYCAARYYYYYYYIRRDYWGQGTQVTVSS”, for which the “polyreactivity (PSR sort gate)” value is recorded as “low polyreactivity”.

Consider “QVQLVESGGGLVQAGGSLRLSCAASGSTFPTNAMGWYRQAPGKERELVADINGNGGRTYYADSVKGRFTISRDNAKNTVYLQMNSLKPEDTAVYYCAVEPDVYPSWYYYVDYDYWGQGTQVTVSS”, for which the “polyreactivity (PSR sort gate)” value is “low polyreactivity”.

Consider “QVQLVESGGGLVQAGGSLRLSCAASGSTFPTYAMGWYRPAPGKERELVAAITRGGRTYYADSVKGRFTISRDNAKNTVYLQMNSLKPEDTAVYYCAAVYYGAAQYNYWGQGTQVTVSS”, for which the “polyreactivity (PSR sort gate)” value is “high polyreactivity”.

As for “QVQLVESGGGLVQAGGSLRLSCAASGSTFPTYAMGWYRQAPGKERELVAAITWSGGSTYYADSVKGRFTISRDNAKNTVYLLMNSLKPEDTAVYYCAKSTGYGRRQKRYDWGQGSQVTVSS”, the “polyreactivity (PSR sort gate)” value is on record as “high polyreactivity”.

“QVQLVESGGGLVQAGGSLRLSCAASGSTFPVNAKGWYRPAPGKERQLVATIRWTGGGTYYADSVKGRFTISRDNAKNTVYLQMNSLKPEDTAVYYCAADPPWEWSDYGYDYWGQGTQVTVSS”: the “polyreactivity (PSR sort gate)” value is reported as “low polyreactivity”.

Consider “QVQLVESGGGLVQAGGSLRLSCAASGSTFPVYAMGWYRQAPGKERELVAAITSGGSTYYADSVKGRFTISRDNAKNTVYLQMNSLKPEDTAVYYCAAEDSSPAYNHWGHGTQVTVSS”, for which the “polyreactivity (PSR sort gate)” value is given as “low polyreactivity”.

“QVQLVESGGGLVQAGGSLRLSCAASGSTFPWYDMGWYRQAPGKERELVADISGGTRTYYADSVKGRFTISRDNAKNTVYLQMNSLKPEDTAVYYCAVGYYWNEPLYWYGDFDYWGQGTQVTVSS”: the “polyreactivity (PSR sort gate)” value is “high polyreactivity”.

With “QVQLVESGGGLVQAGGSLRLSCAASGSTFPYNAMGWYRQAPGKERELVAAISWSGGRTYYADSVKGRFTISRDNAKNTVYLQMNSLKPEDTAVDYCAKAVKQYGFYYWGQGTQVTVSS”, the “polyreactivity (PSR sort gate)” value was “high polyreactivity”.

As to “QVQLVESGGGLVQAGGSLRLSCAASGSTFPYNAMGWYRQAPGKERELVAAITGRGGSTYYADSVKGRFTISRDNAKNTVYLQMNSLKPEDTAVYYCAARYLYLLYYWGQGTQVTVSS”, the “polyreactivity (PSR sort gate)” value is “high polyreactivity”.

“QVQLVESGGGLVQAGGSLRLSCAASGSTFPYNTMGSYIQAPGKESELVATIRSRGDSTYFADSVKGRFTISRDNAKNTVYFQMNSLKPEDTAFYYCNADPRTLWWSRPYYSWGQGTQVTVSS”: the “polyreactivity (PSR sort gate)” value is listed as “high polyreactivity”.

Take “QVQLVESGGGLVQAGGSLRLSCAASGSTFPYYAMGWYRQAPGKERELVAAITSSASTYYADSVKGRFTISRDNAKNTVYLQLNSPKPEDTADYYCPVRSPYRLSPWRVGYWGQGTQVTVSS”: the “polyreactivity (PSR sort gate)” value is “high polyreactivity”.

Turning to “QVQLVESGGGLVQAGGSLRLSCAASGSTFQFYAMGWYRQAPGKERELVAAIRSSDDSTYYADSVKGRFTSSRDNAKNTVYLQMNSLKPEDTAVYYCAAVQDYYGVWYDYWGQGTQVTVSS”, the “polyreactivity (PSR sort gate)” value is “high polyreactivity”.

On to “QVQLVESGGGLVQAGGSLRLSCAASGSTFQFYAMGWYRQAPGKERELVAVITSGDDTNYADSVKGRFTISRDNAKNTVYLQMNSLKPEDTAVYYCAVEYILVYTRVRSYWFDYWGQGTQVTVSS”, for which the “polyreactivity (PSR sort gate)” value is “low polyreactivity”.

With “QVQLVESGGGLVQAGGSLRLSCAASGSTFQGYAMGWYRQAPGKERELVAAINYSGGSTYYADSVKGRFTISRDNAKNTVYFQMNSLKPEDTAVYYCAVKLRSRAVTSYGYWGQGTQVTVSS”, the “polyreactivity (PSR sort gate)” value is reported as “high polyreactivity”.

For the sequence “QVQLVESGGGLVQAGGSLRLSCAASGSTFQGYAMGWYRQAPGKERELVARISYTGASTYADSVKGRFTISRDNAKNTVYLQMNSLKPDDTAVYYCNAGGYRYRSYDYWGQGTQVTVSS”, the “polyreactivity (PSR sort gate)” value is given as “high polyreactivity”.

On to “QVQLVESGGGLVQAGGSLRLSCAASGSTFQLYAMGWYRQAPGKERELVAAISGIGDSTYYADSVKGRFTISRDNAKNTVYLQMNSLKPEDTAVYYCAREFSDGLSGKFDYWGHGTQVTVSS”, for which the “polyreactivity (PSR sort gate)” value is on record as “low polyreactivity”.

Take “QVQLVESGGGLVQAGGSLRLSCAASGSTFQLYAMGWYRQAPGKESELVASISWSGGSTYYADSVKGRFTISRDNAKNTVYLQMNSLKPEDTAVYYCAADSRLYLRDDYWGQGTQVTVSS”: the “polyreactivity (PSR sort gate)” value is given as “low polyreactivity”.

For “QVQLVESGGGLVQAGGSLRLSCAASGSTFQPNAMGWYRQAPGKERELVAAISKSDGRTYYADSVKGRFTISRDNAKNTVYLQMNSLQPEDTAVYNCAADAYWEPKVGFSLFDYWGQGTQVTVSS”, the “polyreactivity (PSR sort gate)” value is recorded as “low polyreactivity”.

“QVQLVESGGGLVQAGGSLRLSCAASGSTFQPYAMGWYRQAPGKERELVAAITFSGGSTYYADSVKGRFTISRDNAKNTVYLQMNSLKPEDTAVYYCAAYRRPDYGSWGQGTQVTVSS”: the “polyreactivity (PSR sort gate)” value is “high polyreactivity”.

“QVQLVESGGGLVQAGGSLRLSCAASGSTFQSKAMGWYRQAPGKERELVAAINSGTSTYYADSVKGRFTISRDNAKNTVYLQMNSLKPEDTAVYYCAADGIWGEYYYSELGDYDYWGQGTQVTVSS”: the “polyreactivity (PSR sort gate)” value was “low polyreactivity”.

“QVQLVESGGGLVQAGGSLRLSCAASGSTFQSYAMGRYRQAPGKERELVAAISFSGGSTYYADSVKGRFTISRDNAKNTVYLQMNSLKPEDTAVYYCAKRGWVYFHGYDYWGQGTQVTVSS”: the “polyreactivity (PSR sort gate)” value is on record as “low polyreactivity”.

In the case of “QVQLVESGGGLVQAGGSLRLSCAASGSTFQSYAMGWYRQAPGKERELVAAIDIGDSTYYADSVKGRYTISRDNAKNTVYLQMNSLKPEDTAVYYCAADDEDVLFDYWGQGTQVTVSS”, the “polyreactivity (PSR sort gate)” value is “low polyreactivity”.

For the sequence “QVQLVESGGGLVQAGGSLRLSCAASGSTFQSYAMGWYTQAPGKERELVAAISARGGTTYYADSVKGRFTISRDNAKNTVYLQMNSLKPEDTAVYYCAAEWDTNFWYDYWGQGTQVTVSS”, the “polyreactivity (PSR sort gate)” value is given as “low polyreactivity”.

As for “QVQLVESGGGLVQAGGSLRLSCAASGSTFQSYTMGWYRQAPGKERELVATITSTSSTSYADSVKGRFTISRDNAKNTVYLQMNSLKPEDTAVYYCNAEGLHWGQVTQVTVSS”, the “polyreactivity (PSR sort gate)” value is listed as “low polyreactivity”.

Turning to “QVQLVESGGGLVQAGGSLRLSCAASGSTFQVYAMGWYRQAPGKERELVASITSGGITYYADSVKGRFTISRDNAKNTVYLQMNSLKPEDTAVYYCAVDIRQSGELQRLFLYDYWGQGTQVTVSS”, the “polyreactivity (PSR sort gate)” value is “low polyreactivity”.

On to “QVQLVESGGGLVQAGGSLRLSCAASGSTFQVYTKGWYIQAPGKEREFVASISWSGSSTYYADSVKGRFTISRDNAKNTVYLQMNSLKPEDTAVYYCAARARIKYLADPGYYWGQGTQVTVSS”, for which the “polyreactivity (PSR sort gate)” value is on record as “high polyreactivity”.

Take “QVQLVESGGGLVQAGGSLRLSCAASGSTFQYNAMGWYRQAPGKERELVAAITGSGGSTYYADSVKGRFTISRDNAKNTVYLQMNSLKPEDTAVYYCAKLVRSFNWVLARHKYDYWGQGTQVTVSS”: the “polyreactivity (PSR sort gate)” value is listed as “low polyreactivity”.

As for “QVQLVESGGGLVQAGGSLRLSCAASGSTFQYYAMGWSRQAPGKERELVAAISYGGSRTYYADSVKGRFTISRDNAKNTVYLQMNSLKPEDTAVYYCAKEKYRALAPYYYWGQGTQVTVSS”, the “polyreactivity (PSR sort gate)” value was “high polyreactivity”.

Regarding “QVQLVESGGGLVQAGGSLRLSCAASGSTFQYYAMGWYRQAPGKERELVAAISSGGSTYYADSVKGRFTISRDNAKNTVYLQMNSLKPEDTAVYYCAADFVKRQANRQFDYWGQGTQVTVSS”, the “polyreactivity (PSR sort gate)” value is listed as “high polyreactivity”.

Turning to “QVQLVESGGGLVQAGGSLRLSCAASGSTFQYYAMGWYRQAPGKERELVATISTSGGRTYYADSVKGRFTISRDNAKNTVYLQMNSLKPEDTAVYYCAKRRYSTYYWTFDYWGQGTQVTVSS”, the “polyreactivity (PSR sort gate)” value is on record as “high polyreactivity”.

Consider “QVQLVESGGGLVQAGGSLRLSCAASGSTFRANAMGWYRQAPGKERELVAAISWSGGRTYYADSVKGRFTISRDNAKNTVYLQMNSLKPEDTAVYYCAAVTTQYIYSVPYYYWGQGTQVTVSS”, for which the “polyreactivity (PSR sort gate)” value is “high polyreactivity”.

Turning to “QVQLVESGGGLVQAGGSLRLSCAASGSTFRCYAMGGYRQATGKERELVAAIRSAGSTDYADSVKGRFTISRDNAKITVYLQMNILKQEDTAVYYCAAYFRYRSSRYGYWGQGTQVTVSS”, the “polyreactivity (PSR sort gate)” value is “high polyreactivity”.
